Results published in patent publication US20230078173A1 (ELIXIRON IMMUNOTHERAPEUTICS HONG KONG, published 2023).

Columns and labels:
[1] = molecular target: T1, recombinant cynomolgus PD-L1 (cynomolgus monkey, UniProt Q9NZQ7 19-238 (human entry)); assay: ELISA, cynomolgus PD-L1 immobilised (1 µg/mL)
T1 construct: also called cynoPD-L1; Cynomolgus PD-L1.ECD
Procedure: (§1) The wells were washed with wash solution (0.05% Tween20 in imidazole-buffered saline) and blocked with 1% BSA. […] After incubation at 37° C. for 1 hr, the wells were washed with wash solution. Peroxidase-conjugated Goat anti-human kappa Light chain antibody (Sigma) was applied to each well at 37° C. for 1 h incubation. […] After washing, the wells were developed with TMB substrate for 5-10 min at RT and then stopped with 1 N HCl. Thereafter, absorbance was measured at 450 nm and 650 nm. EC50 and IC50 values were calculated using GraphPad Prism7.

[2] = molecular target: T2, recombinant human PD-L1-mFc fusion protein (human, UniProt Q9NZQ7 19-238); assay: ELISA, human PD-L1-mFc immobilised (1 µg/mL), anti-human kappa-HRP detection
T2 construct: also called hPD-L1; huPD-L1
T2 sequence (Q9NZQ7 19-238): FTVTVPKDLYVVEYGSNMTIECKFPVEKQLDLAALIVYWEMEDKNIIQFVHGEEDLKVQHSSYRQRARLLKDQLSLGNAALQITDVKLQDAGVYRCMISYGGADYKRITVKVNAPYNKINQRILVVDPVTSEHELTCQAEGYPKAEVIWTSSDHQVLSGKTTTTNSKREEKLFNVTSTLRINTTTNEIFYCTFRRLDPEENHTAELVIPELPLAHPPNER
Procedure: as §1

[3] = molecular target: PD-L1 on PD-L1-presenting U2OS bioassay cells (UniProt Q9NZQ7 19-290); assay: cell-based or functional assay
Sequence of PD-L1 on PD-L1-presenting U2OS bioassay cells (Q9NZQ7 19-290): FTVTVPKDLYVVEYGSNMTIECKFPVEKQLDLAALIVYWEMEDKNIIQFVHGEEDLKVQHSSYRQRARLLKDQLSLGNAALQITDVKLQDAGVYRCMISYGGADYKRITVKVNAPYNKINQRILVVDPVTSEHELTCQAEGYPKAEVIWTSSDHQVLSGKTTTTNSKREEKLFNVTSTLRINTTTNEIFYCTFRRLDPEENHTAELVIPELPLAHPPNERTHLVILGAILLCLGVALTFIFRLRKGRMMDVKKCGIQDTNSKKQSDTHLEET

[4] = molecular target: T2, recombinant human PD-L1-mFc fusion …; assay: competition ELISA, PD-L1 immobilised, competitor biotin-PD-1-Fc (30 µg/mL)
Procedure: To test the competition activity, serial dilutions of anti-PD-L1 or anti-PD-L1/IL10 fusion proteins were added.
A recombinant human PD-L1-mFc fusion protein (1 μg/mL), recombinant cynomolgus PD-L1 (1 μg/mL; Sino Biological), or an IL10Rα-Fc fusion protein (1 μg/mL, R&D Systems) were immobilized on 96 well microtiter plate at a concentration of 1 μg/ml in Coating Solution (SeraCare) overnight at 4° C. The wells were washed with wash solution (0.05% Tween20 in imidazole-buffered saline) and blocked with 1% BSA. Serial dilutions of anti-PD-L1 or anti-PD-L1/IL10 fusion proteins were added to wells. After incubation at 37° C. for 1 hr, the wells were washed with wash solution. Peroxidase-conjugated Goat anti-human kappa Light chain antibody (Sigma) was applied to each well at 37° C. for 1 h incubation. […] After washing, the wells were developed with TMB substrate for 5-10 min at RT and then stopped with 1 N HCl. Thereafter, absorbance was measured at 450 nm and 650 nm. EC50 and IC50 values were calculated using GraphPad Prism7.

[5] = molecular target: T3, recombinant human PD-L1-His (human, UniProt Q9NZQ7 19-238); assay: BLI (Octet RED96), antibody captured on AHC biosensor, PD-L1-His in solution, 1:1 model;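 further: rates obtained by 1:1 Langmuir fitting of the binding response, using a 2.5 min association phase then a 5 min dissociation phase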
T3 construct: Analyte of the BLI assay; also called hPD-L1
T3 sequence (Q9NZQ7 19-238): as the sequence (Q9NZQ7 19-238) above
Procedure: Rate constants were calculated by curve fitting analyses (1:1 Langmuir model) of binding response with a 2.5-minute association and 5-minute dissociation interaction time.

T1 sequence (Q9NZQ7 other isoform, or with tags, fused parts or gaps limits assumed): as the sequence (Q9NZQ7 19-238) above, with A33T, A34S, S62N, R68Q, Q82R, F173L, T185A, T192I, H215L counted along it

EC50 [1]: 0.216 nM
EC50 [2]: 0.0784 nM
IC50, blocking PD-1/PD-L1 signaling (PathHunter PD-1 Signaling Bioassay, U2OS PD-L1 cells + Jurkat PD-1 signaling cells) [3]: 3.18 nM
IC50 [4]: 0.182 nM
Kd [5]: 14.4 nM
koff [5]: 0.00679 s⁻¹
kon [5]: 473000 M⁻¹ s⁻¹
B1: PHS102 (antibody, human IgG1, kappa, N297A)
heavy: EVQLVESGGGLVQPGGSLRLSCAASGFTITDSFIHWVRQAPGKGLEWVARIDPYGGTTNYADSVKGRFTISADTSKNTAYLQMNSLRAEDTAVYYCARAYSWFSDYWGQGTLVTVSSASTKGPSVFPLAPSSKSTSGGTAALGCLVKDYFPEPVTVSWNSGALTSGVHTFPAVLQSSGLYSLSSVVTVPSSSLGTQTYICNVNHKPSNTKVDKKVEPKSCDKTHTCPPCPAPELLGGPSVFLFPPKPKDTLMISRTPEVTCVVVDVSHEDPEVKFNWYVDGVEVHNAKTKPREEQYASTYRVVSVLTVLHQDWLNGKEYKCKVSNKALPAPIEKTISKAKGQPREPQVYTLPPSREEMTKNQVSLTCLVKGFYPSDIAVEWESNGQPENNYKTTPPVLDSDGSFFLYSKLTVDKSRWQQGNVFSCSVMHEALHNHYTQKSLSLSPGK
light: DIQMTQSPSSLSASVGDRVTITCRAGQDVYKAVAWYQQKPGKAPKLLIYWSTNLYSGVPSRFSGSGSGTDFTLTISSLQPEDFATYYCQQGSTWPLTFGQGTKVEIKRTVAAPSVFIFPPSDEQLKSGTASVVCLLNNFYPREAKVQWKVDNALQSGNSQESVTEQDSKDSTYSLSSTLTLSKADYEKHKVYACEVTHQGLSSPVTKSFNRGEC
